Reference: publication PMC3575409, “Identification of a Novel Protein-Protein Interaction Motif Mediating Interaction of GPCR-Associated Sorting Proteins with G Protein-Coupled Receptors” (PLoS ONE, 2013)

Assays:
Assay type in all cases: binding
GST-fused ADRB1 C-tail = assay: GST-pull down, ADRB1 C-tail; details: for interaction of truncated GASP-1 with ADRB1 C-tail (words): compared with full-length GASP-1
Excerpt: (§1) cDNAs encoding the cytoplasmic C-tail of 14 GPCRs and 2 one-transmembrane receptors were cloned into the pGEX-2T prokaryotic expression vector downstream the GST sequence. The following pGEX constructs were engineered: pGEX-DOR encoding residues 314–372 of the δ-opioid receptor (referring to Swiss-Prot accession number U10504), pGEX-MOR encoding residues 334–400 of the µ-opioid receptor (L29301), pGEX-KOR encoding residues 326–380 of the κ–opioid receptor (U17298), pGEX-ORL1 encoding residues 315–370 of the opioid receptor-like 1 (X77130), pGEX-M1 encoding residues 414–460 of the muscarinic M1 acetylcholine receptor (X52068), pGEX-M2 encoding residues 436–466 of the muscarinic M2 acetylcholine receptor (M16404), pGEX- ADRB1 encoding residues 373–477 of the β1 adrenergic receptor (J03019), pGEX-ADRB2 encoding residues 322–413 of the β2 adrenergic receptor (P07550), pGEX-CALCR encoding residues 407–490 of the calcitonin receptor (L00587), pGEX-CNR2 encoding residues 295–360 of the cannabinoid type 2 receptor (P34972), pGEX-5HT7 encoding residues 380–445 of the 5-hydroxytryptamine 7 receptor (L21195), pGEX-H2 encoding residues 284–349 of the histamine 2 receptor (S57565), pGEX-TXA2 encoding residues 304–343 of the α isoform of the thromboxane A2 receptor (D38081), pGEX-FZ4 encoding residues 493–537 of the frizzled 4 receptor (AB032417), pGEX-TGFβ encoding residues 805–849 of the type III transforming growth factor b receptor (L07594), pGEX-IGF1 encoding residues 1268–1367 of the insulin growth factor I receptor (X04434). Free GST was produced by using the pGEX-4T3 expression vector without insert. The same plasmid was used to clone the cDNA encoding a central domain of GASP-1, corresponding to amino acids 380 to 1073, downstream the GST sequence. All these plasmids were transformed into the Escherichia coli BL21 strain and expression was induced using 1mM of isopropylthiogalactoside for 2 h at 37°C. Bacteria were then pelleted, resuspended in PBS supplemented with cOmplete protease inhibitors (Roche), lysed at 1.5 kbar using a basic Z cell disrupter (constant system) and finally the lysates were cleared by centrifugation (10,000g, 15 min, 4°C).
(§2) cDNAs encoding GASP-1 and GASP-2 were cloned into the pcDNA3 eukaryotic expression vectors. cDNAs encoding GASP-3, -6, -7, and -9 were subcloned into pcDNA3.1 vectors. All the clones were controlled by DNA sequencing. The in vitro production was performed by using the TNT Quick-coupled Transcription/Translation T7 kit (Promega) in presence of [^35S]-Methionine according to the instructions from the manufacturer.
(§3) GST-fusion proteins were immobilized on glutathione-coupled Sepharose beads (GE Healthcare) for 1 h at 4°C and incubated with [^35S]-labelled in vitro translated GASP proteins or their truncated or mutated forms in ice-cold binding buffer containing: 20 mM Tris-HCl pH 7.4, 150 mM NaCl, 1 mM EDTA, 1 mM DTT, 10% glycerol and 1% Triton X-100. The mixture was incubated for 1 h at 4°C with gentle rocking. The beads were washed five times with the same ice-cold buffer, resuspended in 30 µl SDS-PAGE sample buffer, incubated 10 min at 65°C, and pelleted for 60 s at 3000 g. The supernatants were then analyzed by SDS-PAGE, the gels were stained with Coomassie blue to visualize GST-fusion proteins, dried and analyzed using a Phosphor-imager (Personal Molecular Imager FX, Biorad) to visualize [^35S]-labelled GASPs. Quantification was performed with the Quantity One software (Biorad). GST-pull down quantification data were analyzed using GraphPad Prism 4.03 (GraphPad Software). Quantifications presented are means of at least three independent experiments.

GST-fused M1 C-tail = assay: GST-pull down, M1 C-tail; details: for interaction of truncated GASP-1 with M1 C-tail (words): compared with full-length GASP-1
Excerpt: as §1, §2, §3

GST-fused DOR C-tail = assay: GST-pull down, DOR C-tail; details: for interaction of truncated GASP-1 with DOR C-tail: compared with full-length GASP-1
Excerpt: as §1, §2, §3

GST-fused CALCR C-tail = assay: GST-pull down, CALCR C-tail; details: compared to wild-type GASP-2
Experimental: (§4) cDNAs encoding the cytoplasmic C-tail of 14 GPCRs and 2 one-transmembrane receptors were cloned into the pGEX-2T prokaryotic expression vector downstream the GST sequence. […]
as §3, with “The mixture was incubated for 1 h at 4°C with gentle rocking. The beads were washed five times with the same ice-cold buffer, resuspended in 30 µl SDS-PAGE sample buffer, incubated 10 min at 65°C, and pelleted for 60 s at 3000 g.” left out

GST-fused FZ4 C-tail = assay: GST-pull down, FZ4 C-tail; details: strong = >10% of GASP input
Experimental: as §4
as §3, with “The mixture was incubated for 1 h at 4°C with gentle rocking. The beads were washed five times with the same ice-cold buffer, resuspended in 30 µl SDS-PAGE sample buffer, incubated 10 min at 65°C, and pelleted for 60 s at 3000 g.” left out

[1] = system: GST-fused TGFβ (type III transforming growth factor β receptor) C-tail; assay: GST-pull down, TGFβ C-tail; details: non-GPCR control
Excerpt: as §1, §2, §3

[2] = system: GST-fused IGF1 (insulin growth factor I receptor) C-tail; assay: GST-pull down, IGF1 C-tail; details: non-GPCR control
Excerpt: as §1, §2, §3

GST-fused GPCR C-tails = assay: GST-pull down, GPCR C-tails
Excerpt: as §1, §2
as §3, with “experiments. […]” for “experiments.”

B1: mutant 380–1395: truncated mutant of GASP-1 that lacks the N-terminal part (protein)
chain: MTKEEAKTKARARAKQEARSEEEALIGTWFWATDESSMADEASIESSLQVEDESIIGSWFWTEEEASMGTGASSKSRPRTDGERIGDSLFGAREKTSMKTGAEATSESILAADDEQVIIGSWFWAGEEVNQEAEEETIFGSWFWVIDAASVESGVGVSCESRTRSEEEEVIGPWFWSGEQVDIEAGIGEEARPGAEEETIFGSWFWAENQTYMDCRAETSCDTMQGAEEEEPIIGSWFWTRVEACVEGDVNSKSSLEDKEEAMIPCFGAKEEVSMKHGTGVRCRFMAGAEETNNKSCFWAEKEPCMYPAGGGSWKSRPEEEEDIVNSWFWSRKYTKPEAIIGSWLWATEESNIDGTGEKAKLLTEEETIINSWFWKEDEAISEATDREESRPEAEEGDIIGSWFWAGEEDRLEPAAETREEDRLAAEKEGIVGSWFGAREETIRREAGSCSKSSPKAEEEEVIIGSWFWEEEASPEAVAGVGFESKPGTEEEEITVGSWFWPEEEASIQAGSQAVEEMESETEEETIFGSWFWDGKEVSEEAGPCCVSKPEDDEEMIVESWFWSRDKAIKETGTVATCESKPENEEGAIVGSWFEAEDEVDNRTDNGSNCGSRTLADEDEAIVGSWFWAGDEAHFESNPSPVFRAICRSTCSVEQEPDPSRRPQSWEEVTVQFKPGPWGRVGFPSISPFRFPKEAASLFCEMFGGKPRNMVLSPEGEDQESLLQPDQPSPEFPFQYDPSYRSVQEIREHLRAKESTEPESSSCNCIQCELKIGSEEFEELLLLMEKIRDPFIHEISKIAMGMRSASQFTRDFIRDSGVVSLIETLLNYPSSRVRTSFLENMIRMAPPYPNLNIIQTYICKVCEETLAYSVDSPEQLSGIRMIRHLTTTTDYHTLVANYMSGFLSLLATGNAKTRFHVLKMLLNLSENLFMTKELLSAEAVSEFIGLFNREETNDNIQIVLAIFENIGNNIKKETVFSDDDFNIEPLISAFHKVEKFAKELQGKTDNQNDPEGDQEN
modifications: [35S]-methionine labelled
interaction of truncated GASP-1 with ADRB1 C-tail (words) (GST-fused ADRB1 C-tail): interacted similarly | interaction of truncated GASP-1 with M1 C-tail (words) (GST-fused M1 C-tail): interacted similarly | interaction of truncated GASP-1 with DOR C-tail (GST-fused DOR C-tail): interacted similarly

B2: mutant 470–838: truncated GASP-2 corresponding to the C-terminal domain (protein)
chain: KVSDRFRDAAEELNASSRPQTWDEVTVEFKPGLFHGVGFRSTSPFGIPEEASEMLEAKPKNLELSPEGEEQESLLQPDQPSPEFTFQYDPSYRSVREIREHLRARESAESESWSCSCIQCELKIGSEEFEEFLLLMDKIRDPFIHEISKIAMGMRSASQFTRDFIRDSGVVSLIETLLNYPSSRVRTSFLENMIHMAPPYPNLNMIETFICQVCEETLAHSVDSLEQLTGIRMLRHLTMTIDYHTLIANYMSGFLSLLTTANARTKFHVLKMLLNLSENPAVAKKLFSAKALSIFVGLFNIEETNDNIQIVIKMFQNISNIIKSGKMSLIDDDFSLEPLISAFREFEELAKQLQAQIDNQNDPEVGQQS
modifications: [35S]-methionine labelled
interaction of GASP-2 mutants with ADRB1 C-tail (GST-fused ADRB1 C-tail; compared to wild-type GASP-2): almost no interaction | interaction of GASP-2 mutants with M1 C-tail (GST-fused M1 C-tail; compared to wild-type GASP-2): almost no interaction | interaction of GASP-2 mutants with CALCR C-tail (GST-fused CALCR C-tail): almost no interaction

B3: mutant 1025–1395: truncated mutant of GASP-1 corresponding to the conserved C-terminal domain (protein)
chain: ICRSTCSVEQEPDPSRRPQSWEEVTVQFKPGPWGRVGFPSISPFRFPKEAASLFCEMFGGKPRNMVLSPEGEDQESLLQPDQPSPEFPFQYDPSYRSVQEIREHLRAKESTEPESSSCNCIQCELKIGSEEFEELLLLMEKIRDPFIHEISKIAMGMRSASQFTRDFIRDSGVVSLIETLLNYPSSRVRTSFLENMIRMAPPYPNLNIIQTYICKVCEETLAYSVDSPEQLSGIRMIRHLTTTTDYHTLVANYMSGFLSLLATGNAKTRFHVLKMLLNLSENLFMTKELLSAEAVSEFIGLFNREETNDNIQIVLAIFENIGNNIKKETVFSDDDFNIEPLISAFHKVEKFAKELQGKTDNQNDPEGDQEN
modifications: [35S]-methionine labelled
interaction of truncated GASP-1 with ADRB1 C-tail (words) (GST-fused ADRB1 C-tail): did not display detectable interactions | interaction of truncated GASP-1 with ADRB1 C-tail (words) (GST-fused ADRB1 C-tail; listed as 1025–1395): no significant interaction | interaction of truncated GASP-1 with M1 C-tail (words) (GST-fused M1 C-tail): did not display detectable interactions | interaction of truncated GASP-1 with M1 C-tail (words) (GST-fused M1 C-tail; listed as 1025–1395): no significant interaction | interaction of truncated GASP-1 with DOR C-tail (GST-fused DOR C-tail): interacted only weakly | interaction with DOR C-tail relative to full-length GASP-1 (GST-fused DOR C-tail; percent of full-length GASP-1 interaction, three independent experiments): 25%

B4: GASP-3: member of the GASP family, two GASP motifs (protein)
chain: MAGTKNKTRAQAKTEKKAAIQAKAGAEREATGVVRPVAKTRAKAKAKTGSKTDAVAEMKAVSKNKVVAETKEGALSEPKTLGKAMGDFTPKAGNESTSSTCKNEAGTDAWFWAGEEATINSWFWNGEEAGNSFSTKNDKPEIGAQVCAEELEPAAGADCKPRSGAEEEEEENVIGNWFWEGDDTSFDPNPKPVSRIVKPQPVYEINEKNRPKDWSEVTIWPNAPAVTPAVLGFRSQAPSEASPPSYIVLASAEENACSLPVATACRPSRNTRSCSQPIPECRFDSDPCIQTIDEIRRQIRIREVNGIKPFACPCKMECYMDSEEFEKLVSLLKSTTDPLIHKIARIAMGVHNVHPFAQEFINEVGVVTLIESLLSFPSPEMRKKTVITLNPPSGDERQRKIELHVKHMCKETMSFPLNSPGQQSGLKILGQLTTDFVHHYIVANYFSELFHLLSSGNCKTRNLVLKLLLNMSENPTAARDMINMKALAALKLIFNQKEAKANLVSGVAIFINIKEHIRKGSIVVVDHLSYNTLMAIFREVKEIIETM
modifications: [35S]-methionine labelled
interaction with FZ4 C-tail (GST-fused FZ4 C-tail): strong interaction | interaction with TGFβ C-tail [1]: no interaction was detected | interaction with IGF1 C-tail [2]: no interaction was detected | GASP input retained by GPCR C-tails (GST-fused GPCR C-tails; percent of GASP input): > 10% | interaction with GPCR C-tails (GST-fused GPCR C-tails; twelve GPCR C-tails): medium to strong interactions
